Results on two molecules are retold here after paper PMC9123286 (The Journal of Cell Biology, 2022).

The target of assay [1] is T1, Get3 D57E-TEV-GFP (S. cerevisiae, UniProt Q12154 1-354, D57E).
T1 construct: Get3, cytosolic ATPase of the GET pathway, S. cerevisiae; ATPase-impaired client trap variant D57E; Captured on anti-GFP beads and eluted by TEV cleavage; the oligomeric state in the lysate was not measured; also called Get3 DE; Get3 D57E (DE); source: yeast (BY4741 background), ectopically expressed, in lysate made without detergent; not shown: TEV site-GFP, C-terminal, kept
T1 sequence (looked up): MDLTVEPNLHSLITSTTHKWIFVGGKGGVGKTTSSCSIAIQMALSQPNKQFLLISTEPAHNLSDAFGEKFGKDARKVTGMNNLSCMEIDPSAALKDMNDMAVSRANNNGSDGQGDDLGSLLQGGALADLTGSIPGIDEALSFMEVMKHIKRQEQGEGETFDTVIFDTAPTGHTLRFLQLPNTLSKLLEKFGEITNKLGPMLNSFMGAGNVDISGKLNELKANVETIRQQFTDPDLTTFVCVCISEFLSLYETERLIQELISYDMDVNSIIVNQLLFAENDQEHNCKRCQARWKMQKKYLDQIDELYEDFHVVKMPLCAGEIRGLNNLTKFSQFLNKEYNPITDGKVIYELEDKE
Description: co-IP; lysates from Δget3 cells ectopically expressing Get3 DE-TEV-GFP and HA-tagged Erg1 full length, ΔC, Δα1 or Δα2; anti-GFP MicroBeads, no detergent, TEV elution; immunoblot, signal normalised to Get3 in the eluate and to the input. For orientation: In western blotting, separated proteins are transferred to a membrane and probed.

Assay [2] concerns the target T1, Get3 D57E-TEV-GFP. Description: co-IP; lysates from cells expressing HA–Erg1 (endogenous promoter) and Get3 DE–TEV–GFP or Get3 DE FIDD–TEV–GFP; anti-GFP MicroBeads, no detergent, TEV elution; immunoblot, signal normalised to Get3 in the eluate and to the input. The note with it: partners not purified.

“N-terminally HA-tagged Erg1 lacking the second predicted helix of the C-terminal hairpin (Δα2) (from UniProt P32476 1-496) (enzyme)” showed a percent reduction of Get3 binding against full-length HA–Erg1 in the assay with Get3 D57E-TEV-GFP [1] of 95%.

B1: N-terminally HA-tagged Erg1 (full length) (enzyme, S. cerevisiae, UniProt P32476 1-496, looked up)
chain: MSAVNVAPELINADNTITYDAIVIGAGVIGPCVATGLARKGKKVLIVERDWAMPDRIVGELMQPGGVRALRSLGMIQSINNIEAYPVTGYTVFFNGEQVDIPYPYKADIPKVEKLKDLVKDGNDKVLEDSTIHIKDYEDDERERGVAFVHGRFLNNLRNITAQEPNVTRVQGNCIEILKDEKNEVVGAKVDIDGRGKVEFKAHLTFICDGIFSRFRKELHPDHVPTVGSSFVGMSLFNAKNPAPMHGHVILGSDHMPILVYQISPEETRILCAYNSPKVPADIKSWMIKDVQPFIPKSLRPSFDEAVSQGKFRAMPNSYLPARQNDVTGMCVIGDALNMRHPLTGGGMTVGLHDVVLLIKKIGDLDFSDREKVLDELLDYHFERKSYDSVINVLSVALYSLFAADSDNLKALQKGCFKYFQRGGDCVNKPVEFLSGVLPKPLQLTRVFFAVAFYTIYLNMEERGFLGLPMALLEGIMILITAIRVFTPFLFGELIG
notes: Erg1, squalene monooxygenase, S. cerevisiae; also called HA–Erg1; source: yeast, expressed from the endogenous ERG1 promoter (genomic) or ectopically in Δget3 cells, in lysate; not shown: HA, N-terminal, kept
As to B1, the “fold enrichment against Get3 DE FIDD” value with Get3 D57E-TEV-GFP [2] is 5 fold.
